Assay results as given in article doi:10.64898/2025.12.23.696137 (bioRxiv, 2025).

Molecular target: the molecule itself
Experiment: co-IP

B1: METTL9-FLAG wild type (mouse) (enzyme)
chain: RRMWTLRSPLSRSLYVNMTSGPGGPAAAAGGGKDTHQWYVCNREKLCESLQSVFVQSYLDQGTQIFLNNSIEKSGWLFIQLYHSFVSSVFSLFMSRTSINGLLGRGSMFVFSPDQFQRLLRINPDWKTHRLLDLGAGDGEVTKIMSPHFEEIYATELSETMIWQLQKKKYRVLGINEWQNTGFQYDVISCLNLLDRCDQPLTLLKDIRSVLEPTQGRVILALVLPFHPYVENVGGKWEKPSEILEIKGQNWEEQVNSLPEVFRKAGFVVEAFTRLPYLCEGDMYNDYYVLDDAVFVLRPV
modifications: N-linked glycans at Asn-35 and Asn-86
stoichiometry N: 2
